The values below come from the RNAGym collection of RNA variant scans (doi:10.1073/pnas.2313332121).

Fewer inactive variants are shown than the library holds. Some results are limits rather than exact numbers.

Sequences and labels used below:
B1: TPR 5TU (parent)
chain: GGAUCUUCUCGAUCUAACAAAAAAGACAAAUCUGCCACAAAGCUUGAGAGCAUCUUCGGAUGCAGAGGCGGCAGCCUUCGGUGGCGCGAUAGCGCCAACGUUCUCAACUAUGACACGCAAAACGCGUGCUCCGUUGAAUGGAGUUUAUCAUG

Variants of B1 are the subject of this data set. In words: polymerase ribozyme fitness, log enrichment relative to wild type (log ratio); higher = more active; in vitro selection for triplet polymerase activity. The essentials: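 Frozen incubation at −7 °C formed the core of a single, triplicate in vitro selection round applied to PCR-built, transcribed mutant libraries of each subunit of a heterodimeric triplet polymerase ribozyme. Extended constructs were gel-excised, captured with streptavidin beads and amplified by RT-PCR, and input and output libraries were Illumina-sequenced with a filter of ≥10 input reads and ≥1 read per output. Fitness is the logarithm of genotype enrichment relative to wild-type enrichment, with inverse-variance-weighted replicate averaging, and the logarithm is base 2.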
As to GGAUCUUCUCGAUCUAACAAAAAAGACAAAUCUGCCACAAAGCAUGAGAGCCUAUUCGGAUGCAGAGGCGGCAGCCUUCGGUGGCGCGAUAACGCCAACGUUCUCAACUAUGACACGCAAAACGCGUGCUCCGUUGAAUGCAGUUUAUCAUG [U44A A52C C54A G92A G141C], the “polymerase ribozyme fitness (log ratio)” value was at most -4.2.
Turning to GGAUCUUCUCGUUCUAACAAAAAAGACAAAUCUGCCACAAAGCUUGAGAGCAUCUUCGGAUGCAGAGGCGGCAGCCUUCGGUGGCGCGAUAGCGCCAACGUUCUCAACUAUGACAGGCAAAACGCGUGCUCCGUUGAAUGGAGUUUAUCAUG [A12U C116G], the “polymerase ribozyme fitness (log ratio)” value was -0.634.
Turning to GGAUCUUCUCGAUCUAACAAAAAAGAUAAAUCUGCCACAAGGCUUGCGAGCAACUUCGGAUGCAGAGGCGGCAGCCUCCGGUGGCGCGAUAGAGCCAACGUUCUCAACUUUGACACGCAAAACGCGUGCUCCGUUGAAUGGAGUUUAUCAUG [C27U A41G A47C U53A U78C C93A A110U], the “polymerase ribozyme fitness (log ratio)” value is at most -4.2.
With GGAUCUUCUCGAUCUAACAAAAAAGACAAAUCUGCCACAAAGCUUGAGAGCAUCUACGGAUGCAGAGGCGGCAGCCUUCGGUGGCGCGAUAGUGCCAACGUUCUCAACUAUGACACGCAAAACGCGUGCUCCGUUGAAUGGAGUUUAUCAUG [U56A C93U], the “polymerase ribozyme fitness (log ratio)” value is -2.13.
With GGGUCGUCUCGAUCUAACAAAAAAGACAAAUCUGCCACAAAGCUUGAGAGCAUCUUCGGAUGCAGAGGCGGCAGCCUUCGGUGGCGCGAGAGCGCCAACGUUUUCAACUAUGACACGCAAAACGCGUGCUCCGUUGAAUGCAGUUUAUCAUG [A3G U6G U90G C103U G141C] the figure was at most -4.2.
With GGAUCUUCUCGAUCUAACAAAAAAGACAAAUCUGCCACAAAGCUUGAGAGCAUCUUCGGGUGCAGAGGCGACAGCCUUCGGUGGCGCGAUAGCGCCAACGUUCUCAACUAUGACACGCAAAACGCGUGCUCCGUUGAAUGUAGUUUAUCAUG [A60G G71A G141U] the figure was at most -4.2.
With GGAUCUUCUCGAUCUAACAAAAAAGACAAAUAUGCCACAAAGCUUGAGAGCAUCUUCGGAGGCAGAGGCGGCAGCCUUCGGAGGCGCGAUAUCGCCAAGGUUCUCAACUAUGACACGCAAAACGCGUGCUCCGUUGAAUGGAGUUUAUCAUG [C32A U61G U82A G92U C99G] the figure was at most -4.2; with GGAUCUUCUCGAUCGAACAAACAAGACAAAUCUGCCACAAAGCUUGAGAGCAUCUUCGGGUGCAGAGGCGGCUGCGUUCGGUGGCGCGAUAGCGCCAACGUUAUCAACUAUGACACGCAAAUCGCGUGCUCCGUUGAAUGGAGUUUAUCAAG [U15G A22C A60G A73U C76G C103A A122U U151A], at most -4.2; with GGAUCUUCUCGAUCUAACAAAAACGACUAAUCUGCCACAACGCUUGAGAGCAUCUUCGGAUGCAGAGGCGGCAGCCUGCGGUGGCGCGAUAGCGCCAACGUUCUCAACUAUGACACGCAAAGCGCGAGCUCCGUUGAAUGGAGUUUAUCAUG [A24C A28U A41C U78G A122G U127A], at most -4.2.
For GGAUCUUCUCGAUCUAACAAAAAAGACAAAUCUGCCACAAAGCUUGAGAGCAUCUUUGGAUGCAGAGGCGGCAGCCUUCGGUGGCGCGAUAGCGUCAACGUUCUCAACUAUGACACGCAAAACGCGUGCUCCGUUGAAUGGAGUUUAUCAUG [C57U C95U], the “polymerase ribozyme fitness (log ratio)” value is -1.55.
Take GGAUCUUCUCGAUCUAACAAAAAAGACAAAUCUGCCACAAAGCUUGAGAGCAUCUUCGGAUGCAGAGGCGGCAGCCUGCGGUGGCGCGAUCGCGCCAACGUUCUCAACUAUGACACGCAAAACGCGUGCUGCGUUGAAUGGAGUUUAUCAUG [U78G A91C C131G]: the “polymerase ribozyme fitness (log ratio)” value is at most -4.2.
With GGAUCUUCUCGAUCUAACAAAAAAGACAAAUCUGCCACAAAGCUUGAGAGCAUCUUCGGAUGUAGAGGAGGCAGCCUUCGGUGGUGCGAUAGCGCCCACGUUCUCAACUAUGACACGGAAAACGCCUGCUCCGUUGAAUGGAGUUUAUCAUG [C63U C69A C85U A97C C118G G126C] the figure was -3.97; with GGAUCUUCACGAUCUAACAAAAAAGACAAAUCUGCCACAAAGCUUGAGAGCAUCUUCGGAUGCAGAGGCGGCAGCCUUCGGUGGCACGAUAGUGCCAACGUUCUCAACUAUGACACGCAAAACGCGUGCUCCGUUGAAUGCAGUUUAUCAUG [U9A G86A C93U G141C], at most -4.2.
With GGAUCUUCUCGAUCUAACAAAAAUGACAAAUCUGCCACAAAGCUUGAGAGCAUCUUCGGAUGCAGAGGCGGCAGCCUUCGGUGGCGCGAUAGCGCCAUUGUUCUCAACUAUGACACGCAAAACGCGGGCUCCGUUGAAUGGAGUUUAUCAUG [A24U A98U C99U U127G] the figure was -3.94; with GGAUCUUCUCGAUGUAACAAAAAAGACAAAUCUGCCACAAAGCUUGAGAGCAUCUUCGGAUGCAGAGGCGGCAGCCUUCGGUAGCGCGAUAGCGCUAACGUUCUCAACUGUGACACGCAAAACGCGUGCUCCGUUGAAUGGUGUUUAACAUG [C14G G83A C96U A110G A142U U148A], at most -4.2; with GGAUCUUCUCGAUCUAACAAAAAAGACAAAUCUGCCACAAAGCUUGAGAGCAUCUUCGGAUGCAGAGGCGGCAGCCUUCUGUGGAGCGAUAGCGCCAACGUUCUCAACUAUGACACGCAAAACGCGUGCUCCGUUGAAUGGAGUUUAUCAUG [G80U C85A], -2.27.
In the case of GGAUCUUCUCGAUCUAACAAAAAAGACAAAUCUGCCACAAAGCUUGAGAGCAUCUUCGGAUGCAGAGGCGGCAGCCUUCGGUGGCGCGAUUGCGCCAACGUUUUCAACUAUGACACGCAAAACGCGUGCUCCGUUGAAUGGAGUAUAUCAUG [A91U C103U U145A], the “polymerase ribozyme fitness (log ratio)” value was at most -4.2.
On to GGAUCUUCUCGAUCUAACAAAAAAGACAAAGCUGCCACAAAGCUUGAGAGCAUCUUCGGAUGCAGAGGCGGCAGCCUUCGGUGGCGCGAUAGCGUCAACGUUCUCAACUAUGACACGCAAAACGCGUGCUCCGUUGAAUGGAGUUUAUCAUG [U31G C95U], for which the “polymerase ribozyme fitness (log ratio)” value was 0.463.
With GGAUCUUCUCGAUCUAACAAAAAACACAAAUCUGCCACAAAGCUUGAGAGCAUCUUCGGAUGCAGAGGCGGCAGCCUUCGGUCGCGGGAUGGCGCCAACGUUCUCAACUAUGACACGCAAAACGCGUGCUCCGUUGAAUGGAGUUUAUCAUG [G25C G83C C87G A91G], the “polymerase ribozyme fitness (log ratio)” value was at most -4.2.
